IC50 and Km data for 3 molecules are collected here from paper PMC10023946 (The Journal of Biological Chemistry, 2023).

Data set [1] concerns the target T1, cytochrome P450 17A1 (CYP17A1) (Homo sapiens, UniProt P05093).
T1 sequence (P05093 20-508): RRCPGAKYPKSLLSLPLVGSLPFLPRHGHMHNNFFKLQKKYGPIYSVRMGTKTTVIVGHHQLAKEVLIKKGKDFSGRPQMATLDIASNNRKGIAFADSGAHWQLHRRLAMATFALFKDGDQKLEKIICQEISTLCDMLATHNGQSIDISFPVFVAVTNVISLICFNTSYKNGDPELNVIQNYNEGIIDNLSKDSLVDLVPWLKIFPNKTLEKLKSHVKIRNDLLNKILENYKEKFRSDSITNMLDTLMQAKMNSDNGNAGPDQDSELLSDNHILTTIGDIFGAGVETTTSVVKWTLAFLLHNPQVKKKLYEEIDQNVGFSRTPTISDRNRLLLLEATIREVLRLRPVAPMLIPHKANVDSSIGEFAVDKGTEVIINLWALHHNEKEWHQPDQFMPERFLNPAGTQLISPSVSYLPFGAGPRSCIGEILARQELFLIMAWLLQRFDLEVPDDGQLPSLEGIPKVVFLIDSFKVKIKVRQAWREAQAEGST
The format is biochemical.

The target of a further data set is T2, CYP17A1 N52Y (Homo sapiens, UniProt P05093, N52Y).
T2 sequence (P05093 20-508 N52Y): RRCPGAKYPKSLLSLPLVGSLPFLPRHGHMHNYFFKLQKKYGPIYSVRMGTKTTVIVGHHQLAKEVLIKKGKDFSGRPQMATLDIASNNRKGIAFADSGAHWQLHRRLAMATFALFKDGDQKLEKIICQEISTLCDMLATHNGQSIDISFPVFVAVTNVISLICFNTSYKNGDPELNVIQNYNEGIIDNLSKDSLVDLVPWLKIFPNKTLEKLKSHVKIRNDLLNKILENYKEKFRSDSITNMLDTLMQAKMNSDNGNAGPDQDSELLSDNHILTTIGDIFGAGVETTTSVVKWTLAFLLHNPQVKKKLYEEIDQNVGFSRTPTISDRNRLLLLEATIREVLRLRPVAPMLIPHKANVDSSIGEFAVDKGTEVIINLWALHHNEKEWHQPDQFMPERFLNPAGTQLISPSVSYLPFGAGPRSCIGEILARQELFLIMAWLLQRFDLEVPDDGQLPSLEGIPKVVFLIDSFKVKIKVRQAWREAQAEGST
Put plainly: X-ray co-crystal structure, […] Å. The data set is classed as biochemical.

Substrate in data set [2]: CC(=O)[C@@]1(O)CC[C@H]2[C@@H]3CC=C4C[C@@H](O)CC[C@]4(C)[C@H]3CC[C@@]21C
Kind of data set: purified protein. Particulars: heme displacement of heme-coordinated water.

Substrate in data set [3]: CC(=O)[C@H]1CC[C@H]2[C@@H]3CCC4=CC(=O)CC[C@]4(C)[C@H]3CC[C@]12C
Put plainly: purified protein.

What is called IC50 is the concentration at which inhibition is half-maximal. Read a low IC50 as greater potency. With `C[C@]12CC[C@H](O)CC1=CC[C@@H]1[C@@H]2CC[C@]2(C)C(c3cccnc3)=CC[C@@H]12` [abiraterone], the 50% inhibitory concentration (IC50) in data set [1] worked out at 69 ± 5 nM; against CYP17A1 N52Y, 51 ± 2 nM.

B1: CYP17A1 N52Y (Homo sapiens; N52Y) (protein)
chain: RRCPGAKYPKSLLSLPLVGSLPFLPRHGHMHNYFFKLQKKYGPIYSVRMGTKTTVIVGHHQLAKEVLIKKGKDFSGRPQMATLDIASNNRKGIAFADSGAHWQLHRRLAMATFALFKDGDQKLEKIICQEISTLCDMLATHNGQSIDISFPVFVAVTNVISLICFNTSYKNGDPELNVIQNYNEGIIDNLSKDSLVDLVPWLKIFPNKTLEKLKSHVKIRNDLLNKILENYKEKFRSDSITNMLDTLMQAKMNSDNGNAGPDQDSELLSDNHILTTIGDIFGAGVETTTSVVKWTLAFLLHNPQVKKKLYEEIDQNVGFSRTPTISDRNRLLLLEATIREVLRLRPVAPMLIPHKANVDSSIGEFAVDKGTEVIINLWALHHNEKEWHQPDQFMPERFLNPAGTQLISPSVSYLPFGAGPRSCIGEILARQELFLIMAWLLQRFDLEVPDDGQLPSLEGIPKVVFLIDSFKVKIKVRQAWREAQAEGST
One may read the Km as the substrate concentration at which the rate is half of its maximum. With B1, the Km in “purified protein [2]” came to 0.6 ± 0.1 µM; in “purified protein [3]” (heme displacement of heme-coordinated water) it was 1.60 ± 0.09 µM.

B2: cytochrome P450 17A1 (CYP17A1) (Homo sapiens) (protein)
chain: RRCPGAKYPKSLLSLPLVGSLPFLPRHGHMHNNFFKLQKKYGPIYSVRMGTKTTVIVGHHQLAKEVLIKKGKDFSGRPQMATLDIASNNRKGIAFADSGAHWQLHRRLAMATFALFKDGDQKLEKIICQEISTLCDMLATHNGQSIDISFPVFVAVTNVISLICFNTSYKNGDPELNVIQNYNEGIIDNLSKDSLVDLVPWLKIFPNKTLEKLKSHVKIRNDLLNKILENYKEKFRSDSITNMLDTLMQAKMNSDNGNAGPDQDSELLSDNHILTTIGDIFGAGVETTTSVVKWTLAFLLHNPQVKKKLYEEIDQNVGFSRTPTISDRNRLLLLEATIREVLRLRPVAPMLIPHKANVDSSIGEFAVDKGTEVIINLWALHHNEKEWHQPDQFMPERFLNPAGTQLISPSVSYLPFGAGPRSCIGEILARQELFLIMAWLLQRFDLEVPDDGQLPSLEGIPKVVFLIDSFKVKIKVRQAWREAQAEGST
Take B2: the Km in the data set “purified protein [3]” (heme) was 5.2 ± 0.5 µM.
